The Kd is the free concentration of one partner at which half of the binding sites on the other are occupied at equilibrium, for simple one-to-one binding. By koff is commonly meant the rate constant with which the complex falls apart. Low readings indicate slow dissociation, high ones fast dissociation. In general, kon refers to the rate constant with which the complex forms. The low end stands for slower complex formation, the high end for faster complex formation.

In one assay the target is T1, human Fc-His-FBG (human, UniProt P24821 1974-2201).
T1 sequence: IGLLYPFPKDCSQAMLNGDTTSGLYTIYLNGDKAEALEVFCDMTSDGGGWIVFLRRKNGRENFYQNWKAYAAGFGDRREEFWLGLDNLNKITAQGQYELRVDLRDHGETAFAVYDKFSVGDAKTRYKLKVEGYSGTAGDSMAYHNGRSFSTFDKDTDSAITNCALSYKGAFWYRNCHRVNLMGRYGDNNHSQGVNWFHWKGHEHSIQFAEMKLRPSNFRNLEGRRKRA
Description: cell-based or functional assay.

For a further assay, the target named is T2, Human FGB-rCd4.
T2 construct: Not the same construct as m1, which has the FBG at the C terminus; also called human TNC FBG-rCD4; human tenascin-C FBG-rCd4-His (FBG at the N terminus of the rat Cd4 tag); not shown: rat Cd4 (domains 3 and 4) tag, the C-terminal His6 tag and the vector-derived junction residues of pBIOCAM4
T2 chain: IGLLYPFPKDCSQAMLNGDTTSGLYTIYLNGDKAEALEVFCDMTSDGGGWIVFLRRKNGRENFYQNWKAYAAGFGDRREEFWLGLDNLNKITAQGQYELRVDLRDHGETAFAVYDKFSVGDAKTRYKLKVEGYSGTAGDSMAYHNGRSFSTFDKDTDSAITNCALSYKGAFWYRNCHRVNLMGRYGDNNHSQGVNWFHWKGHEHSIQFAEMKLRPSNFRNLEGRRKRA
Description: ELISA (DELFIA), antigen coated on the well, purified Fab at 50 nM, detected with anti-kappa or anti-lambda mAb and Europium-conjugated anti-mouse mAb.

In assay [1] the target is T3, mouse tenascin-C rCd4-His-FBG (rat; mouse, UniProt P05540 207-392, limits assumed).
T3 construct: domain: domains 3 and 4; C-terminal FBG fusion; biotinylated in the ELISA screen; also called Mu TNC; mouse TNC rCd4-His-FBG; not shown: 6His tag
T3 sequence (chain (part 1 of 2)): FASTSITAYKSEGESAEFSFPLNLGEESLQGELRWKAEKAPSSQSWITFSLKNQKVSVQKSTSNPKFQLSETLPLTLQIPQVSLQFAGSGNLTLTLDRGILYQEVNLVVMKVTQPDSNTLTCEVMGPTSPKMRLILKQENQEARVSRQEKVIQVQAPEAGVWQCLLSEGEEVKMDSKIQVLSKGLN
T3 sequence (chain (part 2 of 2)): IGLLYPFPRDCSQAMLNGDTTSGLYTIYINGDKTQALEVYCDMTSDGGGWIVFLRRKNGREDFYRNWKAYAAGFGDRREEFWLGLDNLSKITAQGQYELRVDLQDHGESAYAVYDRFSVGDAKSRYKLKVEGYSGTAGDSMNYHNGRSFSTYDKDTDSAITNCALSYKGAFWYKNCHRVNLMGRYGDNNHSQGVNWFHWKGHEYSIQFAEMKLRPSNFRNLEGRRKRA
Description: SPR, parental antibody. A general note: Surface plasmon resonance follows binding to a sensor surface in real time, without labels.

The target in assay [2] is T3, mouse tenascin-C rCd4-His-FBG. Description: SPR, captured Fab, 25 C. The method, then: (§1) Experiments were performed using a BIAcore T100 instrument with CM5 sensor chip according to the protocol provided with the Human Fab Capture Kit (GE, 28-9583-25). […] After reference signal subtraction, the data was fitted to a global 1:1 fit using the T100 BIAevaluation software (FIGS. 6 a-d).

Assay [3] concerns the target T4, human tenascin-C rCd4-His-FBG (rat; human, UniProt P05540 207-392, limits assumed).
T4 construct: domain: domains 3 and 4; C-terminal FBG fusion; biotinylated in the ELISA and HTRF screens; also called Hu TNC; human TNC rCd4-His-FBG; not shown: 6His tag
T4 sequence (chain (part 1 of 2)): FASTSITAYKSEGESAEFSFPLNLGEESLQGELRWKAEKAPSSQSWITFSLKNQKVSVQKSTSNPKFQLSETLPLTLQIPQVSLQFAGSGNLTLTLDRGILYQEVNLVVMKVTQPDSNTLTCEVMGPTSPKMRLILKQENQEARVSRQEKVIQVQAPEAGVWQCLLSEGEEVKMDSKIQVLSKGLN
T4 sequence (chain (part 2 of 2)): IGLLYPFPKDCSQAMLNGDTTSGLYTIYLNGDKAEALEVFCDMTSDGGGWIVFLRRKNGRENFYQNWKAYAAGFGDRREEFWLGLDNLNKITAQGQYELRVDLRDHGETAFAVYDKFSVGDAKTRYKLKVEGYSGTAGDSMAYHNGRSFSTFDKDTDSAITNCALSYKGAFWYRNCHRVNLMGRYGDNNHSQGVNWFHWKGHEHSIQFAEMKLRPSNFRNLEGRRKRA
Description: SPR, captured Fab, 25 C. The procedure:
as §1

Assay [4] has as its target T4, human tenascin-C rCd4-His-FBG. Description: SPR, 25 C; format not stated; SPR at 25 C.

B1: Fab 2A5 (Fab, V domains shown)
VH: EVRLVQSGAEVKKPGASVKVSCKVSGYTLTELSMHWVRQAPGKGLEWMGGFDPEDGETIYAQKFQGRVTMTEDTSTDTAYMELSSLRSEDTAVYYCATAQKETYALTYWGQGTLVTVSS
VL: DIQMTQSPASLPTSVGDRVTITCRASQYIQGFLNWYQQKPGKAPRLLIYAASTLQDGVPSRFSGSGYGTDFTLTISSLQPEDFATYYCQQSYSTPWTFGQGTKVEIKR
notes: monomeric Fab
On to B1, for which, in the assay with human Fc-His-FBG, the “IC50, inhibition of Fc-His-HuFBG-evoked IL-8 release, THP1-Blue cells” value was 28.5 nM and the “IC50, inhibition of Fc-His-HuFBG-evoked alkaline phosphatase, THP1-Blue cells” value was found to be 20.6 nM. Besides, in the assay with Human FGB-rCd4, the binding result is given as “binds”. Further, in assay [1], the “fold difference in affinity between human and mouse rCd4-his-FBG” value came out at 6.9 fold. Also, in assay [2], the Kd is 78.6 nM, the koff stood at 0.0347 s⁻¹ and the kon was 441000 M⁻¹ s⁻¹. In assay [3], the affinity, expressed as Kd, was 11.4 nM; the koff is 0.00563 s⁻¹; the kon was found to be 496000 M⁻¹ s⁻¹. Besides, the Kd in assay [4] stood at 15 nM.

For the origin of these results see patent publication US20170306005A1 (NASCIENT, published 2017).
